The values below come from patent US20260169005A1.

The target in test [1] is MSLN. In words: ELISA on MSLN at pH 7, column 100 nM. Background: An ELISA detects its analyte on a solid surface through an enzyme-linked reagent.
The target of test [2] is MSLN. In words: ELISA on MSLN at pH 6, column 1.5625 nM.
Test [3] concerns the target MSLN. In words: ELISA on MSLN at pH 7, column 1.5625 nM.
The target of test [4] is MSLN. In words: ELISA on MSLN at pH 7, column 25 nM.
Test [5] deals with MSLN. In words: ELISA on MSLN at pH 6, column 6.25 nM.
For test [6], the target named is MSLN. In words: ELISA on MSLN at pH 6, column 25 nM.
In test [7] the target is MSLN. In words: ELISA on MSLN at pH 6, column 100 nM.
Test [8] addresses MSLN. In words: ELISA on MSLN at pH 7, column 6.25 nM.

In turn, NC came in with an ELISA reading at 100nM, pH=7 with MSLN [1] of 0.0239. The same substance displayed an ELISA reading at 1.5625nM, pH=6 with MSLN [2] of 0.026. Also, the ELISA reading at 1.5625nM, pH=7 with MSLN [3] amounted to 0.0385. For the same substance, in the test with MSLN [4], the ELISA reading at 25nM, pH=7 is 0.0354. Also, the ELISA reading at 6.25nM, pH=6 with MSLN [5] was 0.0183. In the test with MSLN [6], this substance yielded an ELISA reading at 25nM, pH=6 of 0.0152. In the test with MSLN [7], the ELISA reading at 100nM, pH=6 came to 0.0154. The substance further yielded an ELISA reading at 6.25nM, pH=7 in the test with MSLN [8] of 0.0318.
